EP1562972B1
Each block holds one substance with its values, some of them ahead of it.

How the values were obtained:
[1] = target: human neonatal Fc receptor (FcRn), recombinant GPI-linked, on NS0 cells (human) (UniProt P55899); experiment: competition flow cytometry, NS0 cells with human FcRn, vs biotinylated OST577-IgG1, FBB pH 6.0
[2] = target: rhesus neonatal Fc receptor (FcRn), recombinant GPI-linked, on NS0 cells (rhesus) (UniProt H9Z6D2); experiment: competition flow cytometry, NS0 cells with rhesus FcRn, vs biotinylated OST577-IgG1, FBB pH 6.0
[3] = target: human neonatal Fc receptor (FcRn), recombinant GPI-linked, on NS0 cells (human) (UniProt P55899); experiment: competition flow cytometry, NS0 cells with human FcRn, vs biotinylated HuEP5C7-IgG2M3, FSB pH 6.0
[4] = target: human neonatal Fc receptor (FcRn), recombinant GPI-linked, on NS0 cells (human) (UniProt P55899); experiment: competition flow cytometry, NS0 cells with human FcRn, vs biotinylated HuEP5C7-IgG2M3, FBB pH 6.0
[5] = target: human neonatal Fc receptor (FcRn), recombinant GPI-linked, on NS0 cells (human) (UniProt P55899); experiment: competition flow cytometry, NS0 cells with human FcRn, vs biotinylated OST577-IgG2M3, FBB pH 6.0
[6] = target: rhesus neonatal Fc receptor (FcRn), recombinant GPI-linked, on NS0 cells (rhesus) (UniProt H9Z6D2); experiment: competition flow cytometry, NS0 cells with rhesus FcRn, vs biotinylated OST577-IgG2M3, FBB pH 6.0

Substance: OST577-IgG1 M428F mutant (antibody)
IC50 [1]: 3.44 µg/mL
Relative Binding (ratio (IC50 wild-type / IC50 mutant)) [1]: 4

Substance: OST577-IgG1 M428L mutant (antibody)
IC50 [1]: 0.896 µg/mL
IC50 [2]: 0.629 µg/mL
Relative Binding (ratio (IC50 wild-type / IC50 mutant)) [2]: 14

Substance: OST577-IgG2M3 L314A mutant (antibody)
IC50 [3]: 68.7 µg/mL
Relative Binding (ratio (IC50 wild-type / IC50 mutant)) [3]: 0.16

Substance: OST577-IgG2M3 L314Q mutant (antibody)
IC50 [3]: 32 µg/mL
Relative Binding (ratio (IC50 wild-type / IC50 mutant)) [3]: 0.33

Substance: OST577-IgG2M3 L314W mutant (antibody)
IC50 [3]: 20.2 µg/mL
Relative Binding (ratio (IC50 wild-type / IC50 mutant)) [3]: 0.53

Substance: OST577-IgG2M3 T250Q/M428L double mutant (antibody)
IC50 [5]: 0.43 µg/mL
IC50 [6]: 0.554 µg/mL
Relative Binding (ratio (IC50 wild-type / IC50 mutant)) [6]: 27

More lines, now with the values ahead:

IC50 [1]: 0.351 µg/mL
Relative Binding (ratio (IC50 wild-type / IC50 mutant)) [1]: 29
IC50 [2]: 0.236 µg/mL
Relative Binding (ratio (IC50 wild-type / IC50 mutant)) [2]: 37
Substance: OST577-IgG1 T250Q/M428L double mutant (antibody)

IC50 [3]: 102 µg/mL
Substance: OST577-IgG2M3 L314R mutant (antibody)

IC50 [3]: 3.4 µg/mL
IC50 [4]: 2.97 µg/mL
Substance: OST577-IgG2M3 M428F mutant (antibody)

IC50 [5]: 1.79 µg/mL
Relative Binding (ratio (IC50 wild-type / IC50 mutant)) [5]: 6.7
IC50 [6]: 1.92 µg/mL
Relative Binding (ratio (IC50 wild-type / IC50 mutant)) [6]: 7.7
Substance: OST577-IgG2M3 M428L mutant (antibody)
